From publication PMC3206076, “Structural, Stability, Dynamic and Binding Properties of the ALS-Causing T46I Mutant of the hVAPB MSP Domain as Revealed by NMR and MD Simulations” (PLoS ONE, 2011)

B1: Nir2 peptide (EEEFFDAHE) (peptide)
peptide: EEEFFDAHE
notes: FFAT-motif peptide of the Nir2 protein; also called the peptide; source: synthetic peptide, bought: Genesis Biotech Inc., further purified by HPLC (reverse-phase C18)

Columns and labels:
[1] = biological target: Nir2 peptide FFAT motif (Homo sapiens) (UniProt O00562); experiment: ITC; conditions: cited from earlier work
[2] = biological target: T1, T46I mutant of the hVAPB MSP domain (human, UniProt O95292 1-125, T46I); experiment: ITC; Microcal VP; peptide or EphA4 (300 µM) in the syringe, MSP protein (10 µM) in the cell; 50 mM Tris-HCl, 150 mM NaCl, 2 mM DTT, pH 7.5, 25°C; single binding site model; conditions: both partners purified
T1 construct: human VAPB MSP domain, residues 1-125, with the ALS-causing T46I mutation found in non-Brazilian kindred; Made by site-directed mutagenesis on the WT-MSP construct; PDB 3IKK is the structure of the WT parent; 15N-labelled for the HSQC titrations in which its own spectrum was observed; also called T46I-MSP domain; T46I-MSP
T1 sequence (O95292 1-125 T46I): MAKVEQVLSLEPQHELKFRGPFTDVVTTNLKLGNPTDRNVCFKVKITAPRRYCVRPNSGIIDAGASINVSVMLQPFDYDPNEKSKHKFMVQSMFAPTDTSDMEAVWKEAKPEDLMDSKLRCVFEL

[3] = biological target: T2, wild-type (WT) hVAPB MSP domain (residues 1–125) (human, UniProt O95292 1-125); experiment: NMR titration; 1H-15N HSQC of 15N-labeled WT-/T46I-MSP (100 µM) without or with unlabeled Nir2 peptide or EphA4 at molar ratios 1:0.5 to 1:8; 10 mM phosphate buffer, pH 6.8, 25°C; conditions: both partners purified
T2 construct: human VAPB (vesicle-associated membrane protein-associated protein B), MSP domain, residues 1-125; 15N-labelled for the HSQC titrations in which its own spectrum was observed; also called WT-MSP domain; WT-MSP

[4] = biological target: T46I mutant of the hVAPB MSP domain (human, UniProt O95292 1-125, T46I); experiment: ITC
Target sequence in this assay (O95292 1-125 T46I): as above

T2 sequence (O95292 1-125): as the sequence (O95292 1-125 T46I) above, with I46T counted along it

Molecule | Kd [1] | Kd [2] | binding result [3] | Ka [4]
VAPB MSP (from UniProt O95292) | 650 nM |  |  | 
B1 |  | 2200 nM | binds | 455000 M⁻¹
